According to patent US20230183352A1 (published 2023):
Residue numbers refer to the chain shown, from its start.

B1: QP192193 (antibody, V domains shown)
VH: QVQLQQSGAELVRPGSSVKISCKASGYAFSSYWMNWVKQRPGQGLEWIGQIYPGNGDTTYNGKFKGQATLTADKSSSTVYMQLSSLTSEDSAVYFCARFVKGNAMDYWGQGTSVTVSS
VL: DIVMTQSPSSLTVTAGEKVTMSCKSSQSLLNSGNQKNYLTWYQQNPGQPPKMLIYWASTRESGVPDRFTGSGSGIDFSLTISSVQAEDLALYYCQNAYSYPFTFGSGTKLEIK
B2: QP190191 (antibody, V domains shown)
VH: EVKLVESGGGLVKPGGSLKLSCAASGFTFSNYAMSWVRQTPEKRLEWVASIISGGRTYYLDSEKGRFTISRDNARNNLYLQMSSLRSEDTAMYYCTRIYYGNSFDYWGQGTTLTVSS
VL: B1 VL with L11Q, N45K, M52L, I75T, S78T, S83N, V84M, L91V, A97D
B3: QP207208 (antibody, V domains shown)
VH: EVQLQQSGPELVKPGASVKMSCKASGYTFTSYIMHWVKQKPGQGLEWIGYINPYNDGTKYNEKFKGKATLTSDKSSSTVYMELSSLTSEDSAVYCCARLGFTTRNAMDYWGQGTSVTVSS
VL: DIVMTQSPSSLSVSAGEKVTMNCKSSQSLLNSGNQKNYLAWYQQKPGQPPKLLIYGASTRESGVPDRFTGSGSGTDFTLTISSVQAEDLAVYYCQNDHSYPFTFGSGTKLEIK
B4: QP14381433 (antibody, V domains shown)
VH: EVQLVESGGGLVKPGGSLRLSCAASGFTFSNYAMSWVRQAPGKRLEWVASIISGGRTYYLDSEKGRFTISRDNAKNSLYLQMNSLRAEDTAVYYCTRIYYGNSFDYWGQGTLVTVSS
VL: DIVMTQSPDSLAVSLGERATINCKSSQSLLNSGNQKNYLTWYQQKPGQPPKLLIYWASTRESGVPDRFSGSGSGTDFTLTISSLQAEDVAVYYCQNDYSYPFTFGQGTKLEIK
B5: QP14381435 (antibody, V domains shown)
VH: B4 VH
VL: B4 VL with N22S, S69T
B6: QP14491447 (antibody, V domains shown)
VH: EVQLVESGGGLVQPGGSLRLSCAASGFTFSSFGMHWVRQAPGKGLEWVSYISSGSNSIYYVDTVKGRFTISRDNAKNSLYLQMNSLRDEDTAVYYCARNAYYGNSFDYWGQGTLVTVSS
VL: B4 VL with N22S, Y93F, D97N, S99Y, F102L, Q106G, L110V
B7: QP14371434 (antibody, V domains shown)
VH: B4 VH with R44G
VL: B4 VL with N22S
B8: QP14661462 (antibody, V domains shown)
VH: B3 VH with Q5V, P9A, L11V, V12K, M20V, K40A, S76T, T87R, S91T, S115L
VL: B4 VL with T40A, W56G, S69T, L84V, Y98H
B9: QP14361434 (antibody, V domains shown)
VH: B4 VH with R44G, A49S
VL: B4 VL with N22S
B10: QP14631462 (antibody, V domains shown)
VH: QVQLVQSGAEVKKPGASVKVSCKASGYTFTSYIMHWVRQAPGQGLEWMGYINPYNDGTKYNEKFKGRVTMTRDTSTSTVYMELSSLRSEDTAVYYCARLGFTTRNAMDYWGQGTLVTVSS
VL: B4 VL with T40A, W56G, S69T, L84V, Y98H
B11: QP14381434 (antibody, V domains shown)
VH: B4 VH
VL: B4 VL with N22S
B12: QP14511447 (antibody, V domains shown)
VH: B6 VH with S49A, D88S
VL: B4 VL with N22S, Y93F, D97N, S99Y, F102L, Q106G, L110V
B13: QP14631460 (antibody, V domains shown)
VH: B10 VH
VL: B4 VL with T40A, W56G, Y98H
B14: QP14361433 (antibody, V domains shown)
VH: B4 VH with R44G, A49S
VL: B4 VL
B15: QP14441441 (antibody, V domains shown)
VH: QVQLVQSGAEVKKPGASVKVSCKASGYAFSSYWMNWVRQAPGQGLEWIGQIYPGNGDTTYNGKFKGRVTMTADKSTSTVYMELSSLRSEDTAVYYCARFVKGNAMDYWGQGTLVTVSS
VL: DIVMTQSPDSLAVSLGERATISCKSSQSLLNSGNQKNYLTWYQQKPGQPPKLLIYWASTRESGVPDRFSGSGSGIDFTLTISSVQAEDVAVYYCQNAYSYPFTFGQGTKLEIKR
B16: QP14371435 (antibody, V domains shown)
VH: B4 VH with R44G
VL: B15 VL with S69T, I75T, V84L, A97D
B17: QP14431439 (antibody, V domains shown)
VH: B15 VH with I48M, A72R, K74T
VL: B4 VL with D97A
B18: QP14651460 (antibody, V domains shown)
VH: B10 VH with Q1E, M48I, M70L, R72S, T74K
VL: B15 VL with S22N, T40A, W56G, I75T, V84L, A97D, Y98H
B19: QP14641461 (antibody, V domains shown)
VH: B10 VH with Q1E, M48I, M70L, T74K
VL: B15 VL with S22N, T40A, W56G, S69T, I75T, V84L, A97D, Y98H
B20: QP14431440 (antibody, V domains shown)
VH: B15 VH with I48M, A72R, K74T
VL: B4 VL with N22S, D97A
B21: QP14371433 (antibody, V domains shown)
VH: B4 VH with R44G
VL: B15 VL with S22N, I75T, V84L, A97D
B22: QP14451440 (antibody, V domains shown)
VH: B15 VH with Y95F
VL: B15 VL with I75T, V84L
B23: QP14361435 (antibody, V domains shown)
VH: B4 VH with R44G, A49S
VL: B15 VL with S69T, I75T, V84L, A97D
B24: QP14451442 (antibody, V domains shown)
VH: B15 VH with Y95F
VL: B15 VL with L52M

Assays:
[1] = target: T1, Claudin 18.2 (CLDN18.2), expressed on CHOS-CLDN 18.2 / HEK293-CLDN 18.2 / HCC827-CLDN 18.2 cells (human, UniProt P56856 1-261); assay: cell ELISA
[2] = target: T1, Claudin 18.2 (CLDN18.2), expressed on …; assay: cell ELISA; remark: listed apart in the source
[3] = target: T1, Claudin 18.2 (CLDN18.2), expressed on …; assay: cell ELISA; remark: listed apart in the source
[4] = target: T1, Claudin 18.2 (CLDN18.2), expressed on …; assay: ELISA
[5] = target: T1, Claudin 18.2 (CLDN18.2), expressed on …; assay: ELISA; remark: listed apart in the source

Binder	EC50 [2]	EC50 [3]	also measured
B1	0.101 µg/mL	–	EC50 [1]: 0.155 µg/mL
B2	–	0.178 µg/mL	–
B3	0.179 µg/mL	0.119 µg/mL	–
B4	–	0.125 µg/mL	–
B5	–	0.196 µg/mL	–
B6	0.148 µg/mL	–	–
B7	–	0.284 µg/mL	–
B8	0.538 µg/mL	–	–
B9	–	0.17 µg/mL	–
B10	0.105 µg/mL	–	–
B11	–	0.145 µg/mL	–
B12	0.202 µg/mL	–	–
B13	–	0.135 µg/mL	–
B14	–	0.112 µg/mL	–
B15	–	–	EC50 [4]: 0.106 µg/mL
B16	–	0.134 µg/mL	–
B17	0.111 µg/mL	–	–
B18	–	–	EC50 [5]: 0.0904 µg/mL
B19	–	–	EC50 [5]: 0.0783 µg/mL
B20	0.124 µg/mL	–	–
B21	–	0.108 µg/mL	–
B22	–	–	EC50 [4]: 0.0995 µg/mL
B23	–	0.109 µg/mL	–
B24	–	–	EC50 [4]: 0.0977 µg/mL
